According to patent publication US11466286B2, “Methods and compositions for conferring and/or enhancing herbicide tolerance using protoporphyrinogen oxidase or variant thereof” (FarmHannong Co., Ltd., priority 2016, dated 2022):
Changes are numbered by the printed parent chain. In names and notes the source's numbering stands.

B1: CyPPO10 V165C + F360M: CyPPO10 (SEQ ID NO: 2) PPO variant (protein)
chain: MIEVDVAIVGGGLSGLSVAWRLQRSAPHYSGVLLEASDRLGGNITTQAAEGFVWELGPNSFAPTPALLQLIAEVGLHSELIRGDRHLPRYIYWRGELYPLEPTRPLALATSNLLSPWGKVRAALGALGFVPPYLGSGDESVDSFFRRHLGQEVAERLVAPFVSGCYAGDPQQLSAAAAFRRIAQLEKLGGSLIAGALRLRRQQPPQPKPPAQVQMRPGELGSFREGLAALPRAIAQQLKAPLHLQTPVEAITPEPKGGYLLRSGEQTWHARSVVLATPAYQTAELVAPFQPAIARALATIPYPTVACVVLAYPAGLGRSVRPGFGVLVPRGQGIRTLGTIWSSCLFPQRTPAGWQVFTSMIGGATDPDLASLREEAIVEQVQQDLTRLLDLPAAKARLLGMKVWRRAIPQYIVGYPQQWQQVTHALTQTPGLFLCSNYAEGVALGDRVEHGNRTAAAVAAYLAGGQS
modifications: Synthetic CyPPO10
B2: CyPPO10 L327T: CyPPO10 (SEQ ID NO: 2) PPO variant (protein)
chain: B1 chain with C165V, L327T, M360F
modifications: Synthetic CyPPO10
B3: CyPPO10 V165C + A167C + F360M: CyPPO10 (SEQ ID NO: 2) PPO variant (protein)
chain: B1 chain with A167C
modifications: Synthetic CyPPO10
B4: CyPPO10 Q184G: CyPPO10 (SEQ ID NO: 2) PPO variant (protein)
chain: B1 chain with C165V, Q184G, M360F
modifications: Synthetic CyPPO10
B5: CyPPO10 I408R + F360M: CyPPO10 (SEQ ID NO: 2) PPO variant (protein)
chain: B1 chain with C165V, I408R
modifications: Synthetic CyPPO10
B6: CyPPO10 I408W + F360M: CyPPO10 (SEQ ID NO: 2) PPO variant (protein)
chain: B1 chain with C165V, I408W
modifications: Synthetic CyPPO10
B7: CyPPO10 F324V: CyPPO10 (SEQ ID NO: 2) PPO variant (protein)
chain: B1 chain with C165V, F324V, M360F
modifications: Synthetic CyPPO10
B8: CyPPO10 V165C + A167I + F360M: CyPPO10 (SEQ ID NO: 2) PPO variant (protein)
chain: B1 chain with A167I
modifications: Synthetic CyPPO10
B9: CyPPO10 F161A: CyPPO10 (SEQ ID NO: 2) PPO variant (protein)
chain: B1 chain with F161A, C165V, M360F
modifications: Synthetic CyPPO10
B10: CyPPO10 R89A: CyPPO10 (SEQ ID NO: 2) PPO variant (protein)
chain: B1 chain with R89A, C165V, M360F
modifications: Synthetic CyPPO10
B11: CyPPO10 V165C: CyPPO10 (SEQ ID NO: 2) PPO variant (protein)
chain: B1 chain with M360F
modifications: Synthetic CyPPO10
B12: CyPPO10 R89A + A167L + F360M: CyPPO10 (SEQ ID NO: 2) PPO variant (protein)
chain: B1 chain with R89A, C165V, A167L
modifications: Synthetic CyPPO10
B13: CyPPO10 F360T: CyPPO10 (SEQ ID NO: 2) PPO variant (protein)
chain: B1 chain with C165V, M360T
modifications: Synthetic CyPPO10
B14: CyPPO10 V165C + A167L + F360M: CyPPO10 (SEQ ID NO: 2) PPO variant (protein)
chain: B1 chain with A167L
modifications: Synthetic CyPPO10
B15: CyPPO10 V305L + F360M: CyPPO10 (SEQ ID NO: 2) PPO variant (protein)
chain: B1 chain with C165V, V305L
modifications: Synthetic CyPPO10
B16: CyPPO10 A167L: CyPPO10 (SEQ ID NO: 2) PPO variant (protein)
chain: B1 chain with C165V, A167L, M360F
modifications: Synthetic CyPPO10
B17: CyPPO10 I340T: CyPPO10 (SEQ ID NO: 2) PPO variant (protein)
chain: B1 chain with C165V, I340T, M360F
modifications: Synthetic CyPPO10
B18: CyPPO13 F373L: CyPPO13 (SEQ ID NO: 4) PPO variant (protein)
chain: MNPATPEPLNAEVVVIGAGISGLTLAWRLQQGLSARGGSPQAVLLAEASSRVGGCISTQSKDGYRWEEGPNSFTPTPALLNLIAEVGLTDQLVLADAKLPRYIYWEGALLPVPLSPAAALGSRLLSVGGKLRALQGLLGFVPPPPGHEETVRQFFRRQLGSEVAERLVEPFTSGVYAGDPDQLSAVAAFPRVAGLEERYGSLFAGALQALRQRPQPSPAAIQPPPKRGQLGNLRQGLQQLPEALAQKLGDSLRLGWRALQLKRAGELYWVGFETPEGSRWVAARQVVLALPAYEAAALLQELNPPASQLLAEILYPPVAVVALAYPQEALPQPLRGFGHLIPRSQGLRTLGTIWASCLFPERAPQGYHSFLSLLGGATDAALARRRGIPPIPALSPEERAQIAHAELSQVLLTRRAEPVYLGERLWPRAIPQYTLGHRQRIAQVQAHLASQTPGIWVCANYLDGVALGDCVRRAEALAQQLLSQV
modifications: Synthetic CyPPO13
B19: CyPPO13 R101A + F373M: CyPPO13 (SEQ ID NO: 4) PPO variant (protein)
chain: B18 chain with R101A, L373M
modifications: Synthetic CyPPO13
B20: CyPPO13 F373T: CyPPO13 (SEQ ID NO: 4) PPO variant (protein)
chain: B18 chain with L373T
modifications: Synthetic CyPPO13
B21: CyPPO13 F373H: CyPPO13 (SEQ ID NO: 4) PPO variant (protein)
chain: B18 chain with L373H
modifications: Synthetic CyPPO13
B22: CyPPO13 F373N: CyPPO13 (SEQ ID NO: 4) PPO variant (protein)
chain: B18 chain with L373N
modifications: Synthetic CyPPO13
B23: CyPPO13 A177C + F373M: CyPPO13 (SEQ ID NO: 4) PPO variant (protein)
chain: B18 chain with A177C, L373M
modifications: Synthetic CyPPO13
B24: CyPPO13 F373V: CyPPO13 (SEQ ID NO: 4) PPO variant (protein)
chain: B18 chain with L373V
modifications: Synthetic CyPPO13

The molecules below were run on CyPPO10 (assay: PPO enzyme activity and IC50 by herbicides, CyPPO10 wild type and variants (MBP-PPO fusion)). Settings: PPO enzyme activity of CyPPO10 protein, wild type = 100.
Format: biochemical, Thermosynechococcus elongatus BP-1
Method in brief: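 MBP-fused wild-type and variant CyPPO10 or CyPPO13 were expressed in E. coli BL21(DE3) and purified. After a 30 min oxygen-depleting preincubation with glucose oxidase-catalase in 50 mM Tris-Cl pH 8.0, 50 mM NaCl and 0.04% Tween 20, reactions used 50 μM substrate for 30 min at room temperature. Protoporphyrin IX fluorescence (ex 405/em 633 nm) was quantified against a standard curve.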

Molecule	Activity (%)
B1	93%
B2	84%
B3	91%
B4	97%
B5	5%
B6	5%
B7	59%
B8	75%
B9	92%
B10	83%
B11	99%
B12	7%
B13	85%
B14	83%
B15	82%
B16	95%
B17	19%

Each molecule was assayed on CyPPO13 (assay: PPO enzyme activity and IC50 by herbicides, CyPPO13 wild type and variants (MBP-PPO fusion)). Settings: PPO enzyme activity of CyPPO13 protein, wild type = 100.
Format: biochemical, Synechococcus sp. JA-3-3Ab
Procedure: The enzyme activities of PPO protein and PPO protein variants were examined, and inhibition assay by PPO-inhibiting herbicides was conducted. It was confirmed that the PPO protein has low water-solubility, but in case of being expressed as a fusion protein with MBP (maltose binding protein) (MBP-PPO), the PPO protein is able to be stably expressed as water-soluble form. Therefore, the wild type and variant proteins which were expressed in the form of fusion protein with MBP were used in the present test (refer to FIG. 4).
In order to express wild type genes and mutant genes of CyPPO10 and CyPPO13 (refer to Example 1 and Example 4), those genes were introduced to pMAL-c2X vector (refer to FIG. 5) respectively, and then cloned to BL21 (DE3) E. coli (CodonPlus).
The enzyme activity of the purified wild type protein and variant proteins of CyPPO10 and CyPPO13 was measured by the following process.
At first, a substrate of PPO protein, Protoporphyrinogen IX was synthesized. This process was performed in the space where nitrogen gas is streamed. 6 mg of protoporphyrin IX was dissolved in 20% (v/v) EtOH 20 ml, and stirred under dark condition for 30 minutes. The obtained protoporphyrinogen IX solution was put into a 15 ml screw tube in an amount of 800 and flushed with nitrogen gas for 5 minutes. To this, 1 g of sodium amalgam was added and vigorous shaking was performed for 2 minutes. The lid was open to exhaust hydrogen gas in the tube. Thereafter, the lid was closed and incubated for 3 minutes. The […] was filtered using syringe and cellulose membrane filter. To 600 μl of the obtained […], 2M MOPS [3-(N-morpholino)propanesulfonic acid] was added in an amount of approximately 300 thereby adjusting pH to 8.0. To determine the enzyme activity of PPO protein, a reaction mixture was prepared with the following composition (based on 10 ml): 50 mM Tris-Cl (pH 8.0); 50 mM NaCl; 0.04% (v/v) Tween 20; 40 mM glucose (0.072 g); 5 units glucose oxidase (16.6 mg); and 10 units catalase (1 μl).
Two hundred microliters (200 μl) of reaction mixture containing a purified PPO protein were placed in 96 well plates, and preincubated for 30 min at room temperature to reduce the oxygen concentration by the reaction of glucose oxidase-catalase. The mineral oil was layered and then the reaction was initiated by adding the substrate, […], to a final concentration of 50 μM. The reaction proceeded at room temperature for 30 min and the fluorescence of protoporphyrin IX was measured using Microplate reader (Sense, Hidex) (excitation: 405 nm; emission: 633 nm). To calculate the PPO enzyme activity, protoporphyrinogen IX solution was kept open in the air to oxidize the solution (overnight). To this, 2.7N HCl was added, and the absorbance at 408 nm was measured. A standard curve was generated using standard protoporphyrin IX, and the PPO activity was measured by calibration of protoporphyrin IX using the standard curve of protoporphyrin IX.
The final concentration of each herbicide was as follows: […]

Molecule	Activity (%)
B18	82%
B19	55%
B20	81%
B21	26%
B22	40%
B23	77%
B24	83%
